# ± gives the half width of the 95% confidence interval.
# Legend:
# [1] = folding stability dG unfold (combined trypsin and chymotrypsin); higher = more stable
# Procedure, shortened: (§1)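 Digests were run with trypsin and chymotrypsin at 11 concentrations in threefold dilutions, plus a no-protease condition, on designed mini-proteins in a PA-tagged cDNA display construct. The mini-proteins were under 80 residues, had no cysteine, and were kept only when AlphaFold2 dimer inter-PAE was above 15. After sequencing, Bayesian fitting of the counts gave K50, from which unfolding free energy was derived against a sequence-predicted unfolded-state K50 and a shared folded-state K50, per protease or combined.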
# [2] = folding stability dG unfold from chymotrypsin proteolysis; higher = more stable
# Procedure, shortened: as §1
# [3] = folding stability dG unfold from trypsin proteolysis; higher = more stable
# Procedure, shortened: as §1
Sequence,folding stability dG unfold [1],folding stability dG unfold [2],folding stability dG unfold [3]
SAGGWTIEEIIDAIREAKENGPGQKVEIEIPFGGGPVRVSIEVPPDGRVKIEIQYDNKPIWEIEIPVSAGGS [r16_611_TrROS],2.02 ± 0.15 kcal/mol,2.12 ± 0.081 kcal/mol,1.98 ± 0.14 kcal/mol
SAGGWYERIKEWAKDKGLKVDIEPTSFDPPNGWMPFEIEFPNGKKIDITFPDSPDQMLWMIRNMIKNSAGGS [r16_153_TrROS],2.05 ± 0.15 kcal/mol,2.16 ± 0.09 kcal/mol,1.63 ± 0.057 kcal/mol
SAGGWYLRIEPDDGRELEIPMNDPGLPLEDLADKLMKDMPGPMKIKVEFYHPNKPVEHTIKIPLPKNSAGGS [r16_216_TrROS],0.423 ± 0.28 kcal/mol,0.436 ± 0.33 kcal/mol,0.443 ± 0.11 kcal/mol
SAGGYEKKTIRIEATPEELENLLKELREKYPDLKVEVKVVKVEKKENDPNVSPKDKKVYLEITVVKPKPSAG [r5_437_TrROS_Hall],1.88 ± 0.17 kcal/mol,1.89 ± 0.13 kcal/mol,1.39 ± 0.12 kcal/mol
SAGGYYKDPNGKPREPVPKVEPKPVTITFPNLTPEQADYLADYLRDLGLEVKYDPENGMLTAEFWIYSAGGS [r16_765_TrROS],1.71 ± 0.11 kcal/mol,1.95 ± 0.077 kcal/mol,1.23 ± 0.033 kcal/mol
SAGHQIVKRLARHMQEQGYPIEVDVTVEPYPDDGWVEITIDIEMQNEDGKWQPIGPITIYIPKEDANKLSAG [r5_413_TrROS],1.34 ± 0.17 kcal/mol,1.44 ± 0.11 kcal/mol,0.914 ± 0.07 kcal/mol
SAGIEEVAKEIAETLEELLPSEYKILDAKAIPLPDDVVIVPITVQKFDPNGKPLGELQFVVVIPPGEASAGG [r19_28_TrMRF],0.636 ± 0.062 kcal/mol,0.519 ± 0.096 kcal/mol,0.639 ± 0.068 kcal/mol
SAGIEIRIEAYMPWEEARDQVKEIARWLMSMFPGFKVDIDVDHEPVPNNMWVATVTIKIEPLPPGQPIFSAG [r5_936_TrROS],4.56 ± 0.12 kcal/mol,4.79 ± 0.066 kcal/mol,3.83 ± 0.1 kcal/mol
SAGIKIEVEPSPGNGWYRIRIENPDLRKKLNEKFPDLKEITFPFKNPEDMPWEEMREHAIDQIKEFLPSAGG [r19_298_TrROS],0.64 ± 0.24 kcal/mol,1.03 ± 0.15 kcal/mol,-0.197 ± 0.29 kcal/mol
SAGIKPGDPVVIKFNVPPELREKIKEAFEKPGYEYEFHPETGEVTVVAPAENIDELMKLPYIEEIVPGSAGG [r19_212_TrMRF],0.817 ± 0.15 kcal/mol,0.768 ± 0.1 kcal/mol,0.891 ± 0.052 kcal/mol
SAGIPLGPEQLRALAEELAEEFKKKLAEELGLSPEDIKLLSIRRLPDGSIEIELEIPDRTYRYTFPLPDSAG [r5_565_JUSTAS],3.1 ± 0.16 kcal/mol,3.02 ± 0.042 kcal/mol,3.2 ± 0.17 kcal/mol
SAGIPPDDPNDIYIVPVKITPVPDGSLQIEIIIVWPDGEVYTMEQEFDPNGNIEEMDMEPMPPEDIKESAGG [r19_285_TrROS],1.2 ± 0.14 kcal/mol,1.31 ± 0.081 kcal/mol,1.1 ± 0.1 kcal/mol
SAGKAELVEVTIEGDKLTALFKIPETGGLVLAEAEFDNGIVKVKAKFYSPSGKPLGEAEFTLPASELKLSAG [r5_308_TrMRF],2.48 ± 0.12 kcal/mol,2.73 ± 0.067 kcal/mol,1.83 ± 0.1 kcal/mol
SAGKAIFTVVPIIPKTGKKYSISKFEITLKEGEKIPIKAIADKIPPKNYIVETEIHPDHIHVTVYVLDGSAG [r5_269_TrMRF],1.25 ± 0.17 kcal/mol,1.61 ± 0.11 kcal/mol,0.665 ± 0.08 kcal/mol
SAGKALSPEELARYVREKYGLPADAPITIEEVPGKYTLSLPDLRVEVTVTDDTTTVTLRPPDPGPEAALSAG [r5_190_JUSTAS],1.42 ± 0.14 kcal/mol,1.57 ± 0.16 kcal/mol,0.97 ± 0.044 kcal/mol
SAGKARIVEYDEESGTITIEVDGKTIEIELAPGETAEITLEENEDGTLTLTITVNGKTLTLTIPLDDLKSAG [r5_500_TrROS_Hall],3.15 ± 0.13 kcal/mol,3.47 ± 0.12 kcal/mol,2.61 ± 0.18 kcal/mol
SAGKEEAEKNKIAVLHLELYHPDGTKVSITIAFHPDKPEAVIEELTKLGYPLKDLIKNHPDLKILKIEPSAG [r5_430_TrMRF],1.71 ± 0.11 kcal/mol,1.57 ± 0.044 kcal/mol,1.71 ± 0.092 kcal/mol
SAGKEKKPPKKVTLTLEIEIEVPEEEEEKAKELAEELEEELRKLGIEKVEVEYDKETKRVRIRVTVVLPSAG [r5_512_TrROS_Hall],2.74 ± 0.36 kcal/mol,3.01 ± 0.094 kcal/mol,2.22 ± 0.086 kcal/mol
SAGKEKVLVIPVKVKPGEKIVVKVPSNSKILIIDLESGEIYEIDVPENVEPVFILPENKEYLIAVVFKSAGG [r19_78_TrMRF],3.38 ± 0.11 kcal/mol,3.92 ± 0.086 kcal/mol,2.66 ± 0.081 kcal/mol
SAGKEVEIKIEIVIKMTPEELKKLAEELAKKLKEAGFEVEVTVEEKEVNGELYAVITVTVRLPPGAKPPSAG [r5_217_TrROS_Hall],3.67 ± 0.42 kcal/mol,4.11 ± 0.26 kcal/mol,2.81 ± 0.36 kcal/mol
SAGKFKIVKVEIKDGKITITVKNEKTGELVKKEITFDKKTKKLKIKLYNKNGKLIKEETKTLSLEELKKSAG [r5_308_TrROS_Hall],2.49 ± 0.096 kcal/mol,2.66 ± 0.071 kcal/mol,2.06 ± 0.093 kcal/mol

Sequence,folding stability dG unfold [1],folding stability dG unfold [2],folding stability dG unfold [3]
SAGKFPFMIKIEDKDGKPKDEIPIPAEELQDDPEKFLEIVETIADEFSKDGYRVKIYFPGTGQPIEIPISAG [r14_972_TrROS],0.859 ± 0.2 kcal/mol,1.32 ± 0.15 kcal/mol,0.418 ± 0.2 kcal/mol
SAGKIEFPMPNGYWFRIEIDPENNKVKVEYSPHNGQYKVKIPGKEEVQIPIKGMPFEEMAKEIIEKLLKSAG [r5_447_TrROS],0.962 ± 0.4 kcal/mol,1.13 ± 0.19 kcal/mol,0.776 ± 0.17 kcal/mol
SAGKIIKFKTKANENASITVPEENKILKIKVYKPNGTLLDEYEVEVKPNKTLVLNIPDDNLYVVVEPIPSAG [r5_797_TrMRF],0.975 ± 0.057 kcal/mol,1.17 ± 0.1 kcal/mol,0.56 ± 0.025 kcal/mol
SAGKIKIDVMPPGWFLRIKIEHGGKEQERMIPIPGDSVDEIVKEALDEIQQHFPNKPIKVDIEIYPVDDSAG [r5_180_TrROS],0.874 ± 0.37 kcal/mol,1.29 ± 0.37 kcal/mol,1.03 ± 0.2 kcal/mol
SAGKIKIPPGQEIWIIVNVEWQPDPDNGEPRYTVTVMKIKIKADPNGGLKIESIETKIVPAEDLKDNGLSAG [r5_340_TrROS],3.06 ± 0.14 kcal/mol,3.6 ± 0.078 kcal/mol,1.84 ± 0.036 kcal/mol
SAGKIPPGEEQKKKIKLGGKEIKIKMWTYKNPDGQPHMMFRVEYDGEPGIFNPDSGRPMTPDDIKKMLKSAG [r5_138_TrROS],0.788 ± 0.26 kcal/mol,1.24 ± 0.35 kcal/mol,0.0292 ± 0.19 kcal/mol
SAGKITINVMMNPDGNYYVKIRIGGDGEPIMEFPVDSPEDAEEKAKAFADNLAKKYPNYKIEVDYMPFDSAG [r5_383_TrROS],3.64 ± 0.12 kcal/mol,3.06 ± 0.066 kcal/mol,4.23 ± 0.32 kcal/mol
SAGKIVIDKDNMKVYVTLPNGKKIELSLEELKKLLEELKKEGKPLTAEEIAEKLKKEFPGAEVEIVPVSAGG [r19_46_TrROS_Hall],3.69 ± 0.083 kcal/mol,4.01 ± 0.064 kcal/mol,2.38 ± 0.086 kcal/mol
SAGKKIEIDMSLEELKKLPGIKKVEVKNGKVYLEVDGKKIEITIRPPKPVLEFKEGMSEEEKKELLKKLSAG [r5_2_TrROS_Hall],1.22 ± 0.21 kcal/mol,1.11 ± 0.1 kcal/mol,0.911 ± 0.093 kcal/mol
SAGKKIHITLTEDELREIAEALGLEPEDMTAEELAARLREEFPDVEVTIEKPPVEEREREERELAEEEKSAG [r5_264_TrROS_Hall],1.3 ± 0.14 kcal/mol,0.984 ± 0.068 kcal/mol,1.76 ± 0.064 kcal/mol
SAGKKIKIVKVEVTYDPETKEVTVKITIYNENGEKIKEIELTYEPGMSEEEVREKAEALVRKLIEEGKLSAG [r5_238_TrROS_Hall],2.54 ± 0.1 kcal/mol,2.24 ± 0.05 kcal/mol,2.75 ± 0.15 kcal/mol
SAGKKKEEEKKKKEEKKKKEYYLVKVKIKNPNGEEKEIVLKAKSLEEAKKALEKLGLKVEIVEIKPIKVSAG [r5_233_TrROS_Hall],2.71 ± 0.17 kcal/mol,3.03 ± 0.11 kcal/mol,1.7 ± 0.11 kcal/mol
SAGKKKIKIEIVKVEKNENGETIIRVKVKLEDGSEKEITINLDDLKNGNLKNMTAEEIAKLFPNIEIESAGG [r19_74_TrROS_Hall],1.88 ± 0.18 kcal/mol,1.58 ± 0.084 kcal/mol,2.35 ± 0.062 kcal/mol
SAGKKKKEVKKITLVIEFPEEMTEEELKERAEKLAEELKKKFPKIKKIEVKVEKKDGKLIVTVEIEIEKSAG [r5_446_TrROS_Hall],1.88 ± 0.15 kcal/mol,1.78 ± 0.079 kcal/mol,2.02 ± 0.064 kcal/mol
SAGKKKKIKVKIEIRVKKKYKTKDGKEVEEKEETITVEIEMTLEELKEAIKKLPENVEITKITKIEKESAGG [r19_114_TrROS_Hall],2.26 ± 0.16 kcal/mol,2.42 ± 0.058 kcal/mol,1.58 ± 0.11 kcal/mol
SAGKKKKKPKVKEVIIVVKVENMTAEEIAKKLAEELNVEVTKVEVKDGYVTITLKDGSKIKIEVIPEEKSAG [r5_350_TrROS_Hall],1.58 ± 0.15 kcal/mol,1.76 ± 0.069 kcal/mol,1.35 ± 0.11 kcal/mol
SAGKKKTLTLTLGNVTITITYDEDTGTLRIKVTATVTTVTLDKDTKELTTEKKTVTTEIEIPLAPGATLSAG [r5_195_TrROS_Hall],2.67 ± 0.2 kcal/mol,2.79 ± 0.086 kcal/mol,2.76 ± 0.18 kcal/mol
SAGKKLIEAAKNNKKAVIPVKYKKYKITEKYKTKDGGTKYKAKLIEEKTYNVKLIKVDPKTGKIIIDPKSAG [r5_5_TrMRF],1.75 ± 0.92 kcal/mol,1.82 ± 0.28 kcal/mol,1.07 ± 0.13 kcal/mol
SAGKKLKITDPEYKYYPNEGMYWVTIPIRFPDGKPIFDIDYPMPPGQSWDQVREQAKDIARWLIEEGLISAG [r5_238_TrROS],1.52 ± 0.095 kcal/mol,1.93 ± 0.13 kcal/mol,0.639 ± 0.059 kcal/mol
SAGKKLLVVVEIRVFDKDGKLVREERLVIEVPEEDEEALRRLLEEARRLAEALLPPGARVEIRVRVLPPSAG [r5_793_TrROS_Hall],3.6 ± 0.15 kcal/mol,3.82 ± 0.11 kcal/mol,2.98 ± 0.13 kcal/mol
SAGKKTITVEIVVENLTEEEIEEKIREKLKEAGLKVEVVKVEIVKVEEVDGKKYLVVKVEIKIEPEEESAGG [r19_325_TrROS_Hall],3.06 ± 0.12 kcal/mol,2.87 ± 0.084 kcal/mol,3.5 ± 0.18 kcal/mol
